Measured values reported in the DeepSol protein solubility set.

Test: soluble on expression in E. coli; label from the status in PepcDB or PDB records
For “MENEVVFFCRKCNHHLFAKNPMINTLKVISEMDCPNCGEEGYHNWILSHIGDSEKEKENYNWKLEHHHHHH”, the “soluble on expression in E. coli” value was “soluble”. For “MGSDKIHHHHHHMSIDYSQKIPNNVNLADDRALQRALEHWQPAFLDWWRDMGPEGSHNFDVYLRTAVSVDPSGWAHFEHVKMPDYRWGIFLQPADPARQIHFGEHKGEAAWQDVPGEHRANLRRIIVTQGDTEPASVEQQRHLGLTAPSLYDLRNLFQVNVEEGRHLWAMVYLLHRYFGRDGREEAEALLDRRSGDQDNPRILGAFNERTPDWLSFFMFTYFTDRDGKFQLCALAESGFDPLARTTRFMLTEEAHHMFVGESGVSRVIQRTCEVMRERDIRDPADVRAAGVIDLETIQRYLNFHYSVTIDLFGADQSSNAATFYSAGLKGRFEEGKRTDDHVLKSDVYRVLEVRDGQLGEREVPMLNALNEVLRDDYIRDSIGGVARWNKVIEKHGIPFKLTVPHKAFNRKIGTLSNVHVSPTGELLTEAQWQANERNWLATEEDRAYVASLMGRVTEPGKYANWIAPPAVGVNRQPMDFEYVRFN”, the “soluble on expression in E. coli” value was “not soluble”. In the case of “MCFSFIMPPAMADILDIWAVDSQIASDGSIPVDFLLPTGIYIQLEVPREATISYIKQMLWKQVHNYPMFNLLMDIDSYMFACVNQTAVYEELEDETRRLCDVRPFLPVLKLVTRSCDPGEKLDSKIGVLIGKGLHEFDSLKDPEVNEFRRKMRKFSEEKILSLVGLSWMDWLKQTYPPEHEPSIPENLEDKLYGGKLIVAVHFENCQDVFSFQVSPNMNPIKVNELAIQKRLTIHGKEDEVSPYDYVLQVSGRVEYVFGDHPLIQFQYIRNCVMNRALPHFILVECCKIKKMYEQEMIAIEAAINRNSSNLPLPLPPKKTRIISHVWENNNPFQIVLVKGNKLNTEETVKVHVRAGLFHGTELLCKTIVSSEVSGKNDHIWNEPLEFDINICDLPRMARLCFAVYAVLDKVKTKKSTKTINPSKYQTIRKAGKVHYPVAWVNTMVFDFKGQLRTGDIILHSWSSFPDELEEMLNPMGTVQTNPYTENATALHVKFPENKKQPYYYPPFDKIIEKAAEIASSDSANVSSRGGKKFLPVLKEILDRDPLSQLCENEMDLIWTLRQDCREIFPQSLPKLLLSIKWNKLEDVAQLQALLQIWPKLPPREALELLDFNYPDQYVREYAVGCLRQMSDEELSQYLLQLVQVLKYEPFLDCALSRFLLERALGNRRIGQFLFWHLRSEVHIPAVSVQFGVILEAYCRGSVGHMKVLSKQVEALNKLKTLNSLIKLNAVKLNRAKGKEAMHTCLKQSAYREALSDLQSPLNPCVILSELYVEKCKYMDSKMKPLWLVYNNKVFGEDSVGVIFKNGDDLRQDMLTLQMLRLMDLLWKEAGLDLRMLPYGCLATGDRSGLIEVVSTSETIADIQLNSSNVAAAAAFNKDALLNWLKEYNSGDDLDRAIEEFTLSCAGYCVASYVLGIGDRHSDNIMVKKTGQLFHIDFGHILGNFKSKFGIKRERVPFILTYDFIHVIQQGKTGNTEKFGRFRQCCEDAYLILRRHGNLFITLFALMLTAGLPELTSVKDIQYLKDSLALGKSEEEALKQFKQKFDEALRESWTTKVNWMAHTVRKDYRS”, the “soluble on expression in E. coli” value is reported as “soluble”. With “MNNDLAPHLDIALRHSPPGLAATPIPRVDICVGQGFTEKAPCLYRSMICFILQGSKRVAINDNLLSYDSEHYLISALDLPLIGQILDAEDGQPYVAVSLVLDPALLAVLAASMPAVREREQKGIGITINPMSAPLRDTLLRLLSLLDTPDDIPILAPMVERELLYRLLQGPQGRLL” the “soluble on expression in E. coli” value was “not soluble”. In the case of “MSLDVAALVSGGVDSSVVVHRLCEEGYKPAIFYIRIGMEDKDGYIDCPAEEDIELTTLIARRYGCPFEVVDLHKEYWERVVSYTVETVRRGLTPNPDMMCNKLIKFGCFEERWGYQFDRIATGHYATTDLLNGKTYLSTAKDPVKDQTDFLAQINFAQISKLMFPIGHLLKSEVRAIANAAGLPSAKRKDSQGICFLGKIDYNDFIERYLGKKEGRIIELETGKVIGRHQGYWFHTIGQRKGLGLSGGPWFVVKKDIKRNIILVSRGYDPDAQYGKTIEMETFDFITEDAYEAGYWNREDATPVTFKIRHTPEFTRGLLYKGEKGYRLESEERIQGIAPGQYCVIYDEDHHLCYGSGMITKGREGHHHHHH”, the “soluble on expression in E. coli” value is reported as “soluble”. For “MSNVLIINAMKEFAHSKGALNLTLTNVAADFLRESGHQVKITTVDQGYDIESEIENYLWADTIIYQMPAWWMGEPWILKKYIDEVFTDGHGRLYQSDGRTRSDATKGYGSGGLIQGKTYMLSVTWNAPREAFTDPEQFFHGVGVDGVYLPFHKANQFLGMKPLPTFMCNDVIKQPDIEGDIARYRQHLAENVNS”, the “soluble on expression in E. coli” value was “not soluble”. In the case of “MNGGKETIDDMSLVVGMYGNYEVTKTGNLVGILEVSGINLDLLNETEQQDVFEDYGAFLMSTLGEGVDDTLQFLEPTIPVNMTTYLNGLKRRYLALQKDHPEQQFKIQLIASYLDHFTKVQESKNMTTKQHLLIVKVPIKDKSAESLNLAVAHLDEKIEQVKRDIENALTDFDVTAKILTSQEVQEILKNLINFNGLEHHHHHH”, the “soluble on expression in E. coli” value is reported as “soluble”. In the case of “MLRGGVNDCKIKWEFLIGNSIDSSPILAKNGTIYLGSSNKNLYAINTDGSVKWFFKSGEIIECRPSIGKDGTIYFGSDKVYAINPDGTEKWRFDTKKAIVSDFTIFEDILYVTSMDGHLYAINPDGTEKWRFKTKKAIYATPIVSEDGTIYVGSNDNYLYAINPDGTEKWRFKTNDAITSAASIGKDGTIYFGSDKVYAINPDGTEKWNFYAGYWTVTRPAISEDGTIYVTSLDGHLYAINPDGTEKWRFKTGKRIESSPVIGNTDTIYFGSYDGHLYAINPDGTEKWNFETGSWIIATPVIDENGTIYFGTRNGKFYALFNLEHHHHHH”, the “soluble on expression in E. coli” value is reported as “soluble”. With “MRGSHHHHHHTDPALRATQKNFVELRNVTKRFGSNTVIDNINLTIPQGQMVTLLGPSGCGKTTILRLVAGLEKPSEGQIFIDGEDVTHRSIQQRDICMVFQSYALFPHMSLGENVGYGLKMLGVPRAELKARVKEALAMVDLEGFEDRFVDQISGGQQQRVALARALILKPKVLLFDEPLSNLDANLRRSMRDKIRELQKQFDITSLYVTHDQSEAFAVSDTVLVMNKGHIMQIGSPQDLYRQPASRFMASFMGDANLFPATFSDGYVDIYGYHLPRPLHFGTQGEGMVGVRPEAITLSDRGEESQRCVIRHVAYMGPQYEVTVEWHGQEILLQVNATRLQPDVGEQYYLEIHPYGMFVLADAAGLCGR” the “soluble on expression in E. coli” value was “soluble”. With “MIGSTSDGLVPGNTDMPATPTTALTALRTPHPPTGGESMHPRTRTAPALLFAVCLTALAAYPAAADDPVPTTERVSVTLDGAQIDDPSYRPQLTSKGGVVYTSDGPVWSTDHNGVSDAYRNSERVSYNMGAARSYDPSACHTARMIAFVSDRTPAGGTTPSVYVRNTPVGKLSYASHGYQGVPFTWAGQPAMSADCQWMAFSATLPATPDHVEQPRVYRYRIYDGTIEQVSPDSADGSRAAVRPSISADGRYVAYQSSIPHPGGPANDSDIYVRDLETGTLEKASVGRHGRPADRASTGPSLSADGRHVAFDSYASNLAPGDTNGTVNVFVRDLDAGTTRLVKGAGRHAYTAEAALSGDGLHLAYVSAGIRGSRGVPAVYLRDLATGRTRLISVDTRGHRNDRAAGNPSVNPDGTAVAFDSASPDLVPGDTNGTVDVFLRRLGSPEALEHHHHHH” the “soluble on expression in E. coli” value was “soluble”. In the case of “MGSDKIHHHHHHMPLTNHTPEDRVQDIFDHIAPQYDQMNSVISLGTHHWWRQRVMQAMTLHAGDFALDVCCGTGDWTIALAQAVGPAGHVVGFDFSGVMLQHATTKVRQAQLDDRITLRQGDAMQLPYPDNYFNVVTIGFGLRNVPDATQVLREMARVVKPGGQVVCLETSQPTNPLVHAGWQVYFGHVVPLMGRLAHHYQAYNYLQSSTHHFVSAKELSRLFTAAGLTQVHYDLFNLGAAAVHWGRKPY”, the “soluble on expression in E. coli” value is reported as “not soluble”. For “MTRQRFISDDHYKFQSEHFIRLHGCDISLFPLEIKGKESISDVYSYEIKCFSRTDHNSLDKLHGTRLSCEIGEQYNSLPARFIHGVVTKVIYNYDNSMQHTCIIILQPEIAELASGKRTRVWSNIKPSDIVSTILEDSLFSPPQVILYKEQNLLEYKIQYQESDLDFINRILSEAGIYYFFVHNRDKHIMTLADDPASHPKASYDKLEHLPCENLKESRHGYIREWSFTESLKCPSVTLSGYNESNVSEITIKSESKLTDVKPSKGVYEDIIPERKRELIKKRSEALIASCDSELKIWSGKTDSWWLSCGECFSLDKQDYRITSLYLNAVNNDNEHAGLCYCDLCASDNKSSLNFSREFKTPIIPGVLLARVVGPDSEEYYTDDNGRVKISFLWGEKSAAGTDKTSCWVRVSQVWSGEGFGSQFIPRIGSEVLVSFIQGNPDYPVIVGTVYNGQNTSPFSLPENNCKSGFITRSVKNGKKGEGHQLVFDDKEGEEKVIVTSSGDSLLTVKKDMISTINRSMSLTIAEGRNAEIKRGNDRLVLKEGDLHNDVHGNINIKVSNGDYNLKVSGGSGSLITDKNLTLESTQSIKIKVGANEITISTSGIDIKAAKITIEGQVSAEVKAATLKFESQAISEVKGTMLTLQGSAMTQIKGGIVNIG”, the “soluble on expression in E. coli” value was “not soluble”. With “MLRRSSRHADQRKNGAQLRAEEEANKVKLRLTAENEKLKSEVEKLKKDHEELSRVTLKVNTEFTIQESHMARLLRENMSLKEQLNDFSFKLRFRDDMSRVEEQVKKEQGVTDGYRRRVNQLTEFHVKSQEEQRGEPFPWRTCEICACKFEGETMDQTPRVLGCGHTMCMGCVQKIVGQGYIKCPFCRIVTKIGTTPLNNLPKNYIVLNM” the “soluble on expression in E. coli” value was “not soluble”. With “MLTYETWEENETKGALSVLSWAYKEYKSEIVYACSFGVEGMVLLDLINQVNPSAKVVFLDTNVHFQETYELIQKVRERFPSLNIIEKQPKLTLDEQDKLHGDKLWESNPNLCCKIRKILPLEESLANEKAWISGLRREQSETRKHTKFINQDHRFQSIKVCPLIHWTWKEVWRYVYKHSLPYNSLHDIGYPSIGCEKCTLPVGEGGDSRDGRWAGKVKTECGLHYQ” the “soluble on expression in E. coli” value was “not soluble”. In the case of “MGSDKIHHHHHHMSDVSPARALGIDFGTSNSTVGWHRPGVESLIALEDGKITLPSVVFFNIEERRPVYGRLALHEYLEGYEGRLMRSLKSLLGSKLIKHDTSVLGSALPFKDLLGMFIGELKKRAEAAAGREFDQVVLGRPVFFVDEDPAADQEAEDTLAEVARKIGFKDVSFQYEPIAAAFDYESSISREELVLIVDIGGGTSDFTLIRLSPERHLVAERQSDILATGGVHIGGTDFDKQLSLQGVMPLFGYGSRMKSGALMPTSYHLNLATWHTINALYSQKSQLALGSMRYDIEDSFGIDRLFKLIEQRAGHWLAMEVEASKIELTEHDSRHIDLRRVEPELTAELTRTLFEEAIEGLLERVRGSVTELLAKAGVSEGQVDTVFFTGGSSGIPALRNSVSAMLPNARHVEGNIFGSIGSGLAIEARKRYGAA”, the “soluble on expression in E. coli” value is reported as “not soluble”. For “MVSLCKLFGVTKQAFYKYVDHSTDSSARERFVLEFVKRVRSKDPGIGGMKLWLMYRNEFGTSQAFVGRDCFCAILSKYKLTIRKRFRAPRTTDSSHHLPQYPDLTRTLLLEHPDQLWVSDITYITIWLPDGSYVFCYLSLVTDAYTKEIIGYCVGDTLGSCYTVEALEMAVRRIAAKEIKGLIHHSDRGVQYASADYIAILRHNGILPSMTEDGNPKDNAIAERVNGIIKNELLQGMRFSSIQEVRKAVATAVHFYNNERPHMSLDMLTPVQAGEMQGPIRKRWISYREKYLNVALA”, the “soluble on expression in E. coli” value was “not soluble”. With “MGSDKIHHHHHHMKASCYGSVGMAAMVAANLGEALKIFEQFIGSRCDAFKPELKQEQNDVYWSIHQPLKSFQLSSDATIFLLLGFIHIAKHLTGLSALGTVQLNMPEPIGFSKIKDKLGVSFLFDQKHNIWIFPKEYLMQPVLTADPMLAPLLKAQCKKDIDKLKLRSGWKAEISQVIKKLLINSQGEILKVKQVAQMMNMSERSLQRYLAIENTSFSALVDLTRKQYAQELLQNSLMSIESVALSLGYADTSHFTRAFKRWMGVTPKYYQTQLKLKNLEIRE” the “soluble on expression in E. coli” value was “not soluble”.
